Data from patent publication US20120172295A1.

Biological target: glucagon receptor (UniProt P47871)
Test: cell-based or functional assay

Sequence of glucagon receptor (P47871 26-477 limits assumed): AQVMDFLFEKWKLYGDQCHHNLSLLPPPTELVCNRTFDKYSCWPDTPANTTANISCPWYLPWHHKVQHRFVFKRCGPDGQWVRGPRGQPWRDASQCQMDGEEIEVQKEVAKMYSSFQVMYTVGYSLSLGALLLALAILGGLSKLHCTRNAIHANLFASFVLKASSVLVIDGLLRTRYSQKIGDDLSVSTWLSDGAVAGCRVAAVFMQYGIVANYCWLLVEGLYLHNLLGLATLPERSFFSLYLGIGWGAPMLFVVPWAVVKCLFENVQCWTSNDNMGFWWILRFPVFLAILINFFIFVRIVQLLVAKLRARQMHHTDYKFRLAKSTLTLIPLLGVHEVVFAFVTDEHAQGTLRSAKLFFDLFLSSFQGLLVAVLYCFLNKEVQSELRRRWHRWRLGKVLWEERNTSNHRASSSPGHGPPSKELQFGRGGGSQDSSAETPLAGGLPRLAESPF

## Liraglutide (peptide)
  % relative activity: 0.04%
